# Results as given in US20240168030A1, “DIRECT FLUORESCENT GLYCAN LABELING” (BIO-TECHNE CORPORATION, priority 2019, published 2024).
# B1: FUT3: fucosyltransferase used for fucosylation in Le^a synthesis (protein, UniProt P21217 1-361, looked up)
# 3-galactosyl-N-acetylglucosami …: MDPLGAAKPQWPWRRCLAALLFQLLVAVCFFSYLRVSRDDATGSPRAPSGSSRQDTTPTRPTLLILLRTWPFHIPVALSRCSEMVPGTADCHITADRKVYPQADMVIVHHWDIMSNPKSRLPPSPRPQGQRWIWFNLEPPPNCQHLEALDRYFNLTMSYRSDSDIFTPYGWLEPWSGQPAHPPLNLSAKTELVAWAVSNWKPDSARVRYYQSLQAHLKVDVYGRSHKPLPKGTMMETLSRYKFYLAFENSLHPDYITEKLWRNALEAWAVPVVLGPSRSNYERFLPPDAFIHVDDFQSPKDLARYLQELDKDHARYLSYFRWRETLRPRSFSWALDFCKACWKLQQESRYQTVRSIAAWFT
# B2: ST3Gal3: recombinant human sialyltransferase that generates α2,3-sialylated N-glycans (protein, UniProt Q11203 1-375, looked up)
# CMP-N-acetylneuraminate-beta-1 …: MGLLVFVRNLLLALCLFLVLGFLYYSAWKLHLLQWEEDSNSVVLSFDSAGQTLGSEYDRLGFLLNLDSKLPAELATKYANFSEGACKPGYASALMTAIFPRFSKPAPMFLDDSFRKWARIREFVPPFGIKGQDNLIKAILSVTKEYRLTPALDSLRCRRCIIVGNGGVLANKSLGSRIDDYDIVVRLNSAPVKGFEKDVGSKTTLRITYPEGAMQRPEQYERDSLFVLAGFKWQDFKWLKYIVYKERVSASDGFWKSVATRVPKEPPEIRILNPYFIQEAAFTLIGLPFNNGLMGRGNIPTLGSVAVTMALHGCDEVAVAGFGYDMSTPNAPLHYYETVRMAAIKESWTHNIQREKEFLRKLVKARVITDLSSGI
# B3: B3GalT2: galactosyltransferase used for galactosylation in Le^a synthesis (protein, UniProt O43825 1-422, looked up)
# Beta-1,3-galactosyltransferase …: MLQWRRRHCCFAKMTWNAKRSLFRTHLIGVLSLVFLFAMFLFFNHHDWLPGRAGFKENPVTYTFRGFRSTKSETNHSSLRNIWKETVPQTLRPQTATNSNNTDLSPQGVTGLENTLSANGSIYNEKGTGHPNSYHFKYIINEPEKCQEKSPFLILLIAAEPGQIEARRAIRQTWGNESLAPGIQITRIFLLGLSIKLNGYLQRAILEESRQYHDIIQQEYLDTYYNLTIKTLMGMNWVATYCPHIPYVMKTDSDMFVNTEYLINKLLKPDLPPRHNYFTGYLMRGYAPNRNKDSKWYMPPDLYPSERYPVFCSGTGYVFSGDLAEKIFKVSLGIRRLHLEDVYVGICLAKLRIDPVPPPNEFVFNHWRVSYSSCKYSHLITSHQFQPSELIKYWNHLQQNKHNACANAAKEKAGRYRHRKLH
# Test: Le^a synthesis from FUT8-labeled G0 (G0f) quantified with response curve
# Format: biochemical
# Conditions: for Completion of reaction in Le^a synthesis: FIG. 22B
# Method: FIG. 22A-FIG. 22C show quantification of Le^a and its intermediate products. […] Lane 1 is labeled G0 (G0f) and lane 2 is labeled G2 (G2f). Lane 3 to 5 contain the intermediate reactions of converting G0f to the final Le^a carrying glycan A1 G1[3]F1f with the indicated enzymes. Lane 6 to lane 13 is a 2-fold serial dilution of G0f starting from 25 ng (19 pmol). The exposure time is 240 ms. The mass inputs of the serial dilution and all the band intensities were listed below the picture. FIG. 22C. The response curve of the serial dilution in FIG. 22B. The slope of the line represents the signal to mass ratio of G0f, which allows the quantification of the bands from lanes 1 to 5.
# To evaluate the quantitative aspects of the glycan electrophoresis described in this article, a series of enzymatic reactions towards Le^a synthesis were run along with a 2-fold serial dilution of the FUT8-labeled antibody glycan G0 (G0f) (FIG. 22). Le^a was synthesized from G0f sequentially via the steps of galactosylation by B3GalT2, sialylation by ST3Gal3 and fucosylation by FUT3 (FIG. 22A). Major intermediate products of Le^a synthesis including G1[3]f, A1G1[3]f and A1 G1[3]F1f were observed (FIG. 22B). When the band intensities of the serial dilution of G0f in FIG. 22B were plotted against the masses of the glycan, a response curve with the linear coefficient of 0.9998 was obtained, with the slope of the curve representing the signal to mass ratio (FIG. 22C). The masses of the intermediates of Le^a synthesis were then calculated using the signal to mass ratio. […] In addition, the results also indicate that the sensitivity of the current method for glycan detection is below picomole level.
# [1] = band masses from signal to mass ratio, FIG. 22
molecule,measurement,setting,value
B1,Completion of reaction in Le^a synthesis,,almost completed
B2,Completion of reaction in Le^a synthesis,,almost completed
B3,Share of G0f converted to G1[3]f,[1],53%
same,Share of G0f converted to G2[3]f,[1],9%
